Data on two molecules can be found in article PMC11317151, “DNA binding and bridging by human CtIP in the healthy and diseased states”.

In series [1] the target is MBP-CtIP-800-843 (human, UniProt Q99708 800-843). The series is described as follows: fluorescence-based binding assay; label not certain; weak binding equation; Anisotropy: 20 mM Tris-Cl pH 8.0, 20 mM NaCl, 1 mM DTT, 5 nM HEX fork; EMSA: 20 mM Tris-Cl pH 8.0, 100 mM NaCl, 1 mM DTT, 0.1 mg/ml BSA, 5% glycerol, 2.5 nM Cy5 fork, room temperature; C-Trap reaction: 10 mM Tris-Cl pH 7.6, 20 mM NaCl, 1 mM DTT, 0.1 mg/ml BSA. To be noted: protein: recombinant; tags: MBP; label: 5'-HEX on strand 1; fork: 25 bp duplex, 20 nt 3' and 5' dT arms. (Mobility shift assays separate free from complexed probe on a gel.)
MBP-CtIP-800-843, sequence (Q99708 800-843): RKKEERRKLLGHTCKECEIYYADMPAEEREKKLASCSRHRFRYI

Series [2] deals with T1, CtIP WT (human, UniProt Q99708 1-897). The series is described as follows: fluorescence anisotropy; independent repeat; Anisotropy: 20 mM Tris-Cl pH 8.0, 20 mM NaCl, 1 mM DTT, 5 nM HEX fork; EMSA: 20 mM Tris-Cl pH 8.0, 100 mM NaCl, 1 mM DTT, 0.1 mg/ml BSA, 5% glycerol, 2.5 nM Cy5 fork, room temperature; C-Trap reaction: 10 mM Tris-Cl pH 7.6, 20 mM NaCl, 1 mM DTT, 0.1 mg/ml BSA. The following applies: protein: recombinant; tags: StrepII (cleavable); chain copies: 4; label: 5'-HEX on strand 1; fork: 25 bp duplex, 20 nt 3' and 5' dT arms.
T1 sequence (Q99708 whole entry): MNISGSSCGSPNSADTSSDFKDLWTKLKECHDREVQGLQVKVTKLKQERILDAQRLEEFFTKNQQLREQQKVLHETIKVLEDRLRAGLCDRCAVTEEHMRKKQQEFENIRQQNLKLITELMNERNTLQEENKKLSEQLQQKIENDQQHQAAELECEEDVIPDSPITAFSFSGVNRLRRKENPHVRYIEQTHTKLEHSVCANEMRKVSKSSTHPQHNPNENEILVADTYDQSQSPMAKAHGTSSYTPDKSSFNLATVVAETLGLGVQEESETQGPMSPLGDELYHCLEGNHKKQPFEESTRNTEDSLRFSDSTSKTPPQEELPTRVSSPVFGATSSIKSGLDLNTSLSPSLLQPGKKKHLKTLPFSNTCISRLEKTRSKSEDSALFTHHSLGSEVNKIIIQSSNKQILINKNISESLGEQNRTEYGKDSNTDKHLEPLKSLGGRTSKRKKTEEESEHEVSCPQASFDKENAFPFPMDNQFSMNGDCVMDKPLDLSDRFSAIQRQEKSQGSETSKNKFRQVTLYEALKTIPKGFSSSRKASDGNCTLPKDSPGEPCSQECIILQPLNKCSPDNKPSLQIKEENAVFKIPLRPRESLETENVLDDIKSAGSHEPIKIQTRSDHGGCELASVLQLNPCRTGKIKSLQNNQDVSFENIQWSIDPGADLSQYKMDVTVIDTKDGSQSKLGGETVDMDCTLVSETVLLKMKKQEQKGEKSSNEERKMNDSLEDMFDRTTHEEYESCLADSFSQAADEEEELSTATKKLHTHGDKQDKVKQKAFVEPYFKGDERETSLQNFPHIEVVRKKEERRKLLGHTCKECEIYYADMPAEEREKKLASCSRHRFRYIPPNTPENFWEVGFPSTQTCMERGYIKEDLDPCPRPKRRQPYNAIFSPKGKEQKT

Series [3] addresses T1, CtIP WT. The experiment in a line: fluorescence anisotropy; Anisotropy: 20 mM Tris-Cl pH 8.0, 20 mM NaCl, 1 mM DTT, 5 nM HEX fork; EMSA: 20 mM Tris-Cl pH 8.0, 100 mM NaCl, 1 mM DTT, 0.1 mg/ml BSA, 5% glycerol, 2.5 nM Cy5 fork, room temperature; C-Trap reaction: 10 mM Tris-Cl pH 7.6, 20 mM NaCl, 1 mM DTT, 0.1 mg/ml BSA. The following applies: protein: recombinant; tags: StrepII (cleavable); chain copies: 4; label: 5'-HEX on strand 1; fork: 25 bp duplex, 20 nt 3' and 5' dT arms. (In general: Fluorescence polarisation rises when a labelled molecule tumbles more slowly, as on binding a larger partner.)

For series [4], the target named is CtIP ΔN541b (human, UniProt Q99708 542-897). The series is described as above. The following applies: protein: recombinant; tags: StrepII; label: 5'-HEX on strand 1; fork: 25 bp duplex, 20 nt 3' and 5' dT arms.
CtIP ΔN541b, sequence (Q99708 542-897, stated change not applied): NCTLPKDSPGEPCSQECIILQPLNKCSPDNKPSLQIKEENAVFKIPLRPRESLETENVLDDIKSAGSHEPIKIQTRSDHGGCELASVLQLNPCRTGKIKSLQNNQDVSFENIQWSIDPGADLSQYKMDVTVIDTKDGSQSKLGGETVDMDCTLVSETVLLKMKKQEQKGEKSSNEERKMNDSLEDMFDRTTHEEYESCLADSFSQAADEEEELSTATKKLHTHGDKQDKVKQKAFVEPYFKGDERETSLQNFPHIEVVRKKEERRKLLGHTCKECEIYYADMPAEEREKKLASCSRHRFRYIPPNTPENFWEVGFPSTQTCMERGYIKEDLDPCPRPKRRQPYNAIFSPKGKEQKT
Series [5] concerns the target CtIP ΔN500a (human, UniProt Q99708 501-897). Described as above. To be noted: protein: recombinant; tags: StrepII; chain copies: 2; label: 5'-HEX on strand 1; fork: 25 bp duplex, 20 nt 3' and 5' dT arms.
Series [6] addresses CtIP ΔN541a (human, UniProt Q99708 542-897). The description is as above. The following applies: protein: recombinant; tags: StrepII; chain copies: 2; label: 5'-HEX on strand 1; fork: 25 bp duplex, 20 nt 3' and 5' dT arms.
For series [7], the target named is CtIP ΔN500b (human, UniProt Q99708 501-897). The series is described as above. To be noted: protein: recombinant; tags: StrepII; label: 5'-HEX on strand 1; fork: 25 bp duplex, 20 nt 3' and 5' dT arms.
CtIP ΔN500b, sequence (Q99708 501-897, stated change not applied): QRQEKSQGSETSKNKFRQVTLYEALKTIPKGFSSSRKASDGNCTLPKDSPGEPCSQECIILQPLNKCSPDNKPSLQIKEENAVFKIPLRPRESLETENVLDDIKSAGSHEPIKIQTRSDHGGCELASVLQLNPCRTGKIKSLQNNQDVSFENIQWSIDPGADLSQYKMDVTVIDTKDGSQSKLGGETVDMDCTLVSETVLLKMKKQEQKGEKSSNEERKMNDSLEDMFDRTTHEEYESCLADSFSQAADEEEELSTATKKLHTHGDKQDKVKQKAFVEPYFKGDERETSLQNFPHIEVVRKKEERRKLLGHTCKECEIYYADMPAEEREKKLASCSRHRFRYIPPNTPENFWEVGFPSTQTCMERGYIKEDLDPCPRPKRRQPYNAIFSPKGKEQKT
Series [8] deals with CtIP R100W (human, UniProt Q99708 1-897, R100W). The series is described as above. The following applies: protein: recombinant; tags: StrepII; chain copies: 4; label: 5'-HEX on strand 1; fork: 25 bp duplex, 20 nt 3' and 5' dT arms.
CtIP R100W, sequence (Q99708 whole entry R100W): as the sequence (Q99708 whole entry) above, with R100W counted along it
Series [9] deals with T2, CtIP ΔC608 (human, UniProt Q99708 1-608). The experiment in a line: fluorescence anisotropy; no binding at 400 nM; Anisotropy: 20 mM Tris-Cl pH 8.0, 20 mM NaCl, 1 mM DTT, 5 nM HEX fork; EMSA: 20 mM Tris-Cl pH 8.0, 100 mM NaCl, 1 mM DTT, 0.1 mg/ml BSA, 5% glycerol, 2.5 nM Cy5 fork, room temperature; C-Trap reaction: 10 mM Tris-Cl pH 7.6, 20 mM NaCl, 1 mM DTT, 0.1 mg/ml BSA. To be noted: protein: recombinant; tags: StrepII; chain copies: 4; label: 5'-HEX on strand 1; fork: 25 bp duplex, 20 nt 3' and 5' dT arms.
T2 sequence (Q99708 1-608, stated change not applied): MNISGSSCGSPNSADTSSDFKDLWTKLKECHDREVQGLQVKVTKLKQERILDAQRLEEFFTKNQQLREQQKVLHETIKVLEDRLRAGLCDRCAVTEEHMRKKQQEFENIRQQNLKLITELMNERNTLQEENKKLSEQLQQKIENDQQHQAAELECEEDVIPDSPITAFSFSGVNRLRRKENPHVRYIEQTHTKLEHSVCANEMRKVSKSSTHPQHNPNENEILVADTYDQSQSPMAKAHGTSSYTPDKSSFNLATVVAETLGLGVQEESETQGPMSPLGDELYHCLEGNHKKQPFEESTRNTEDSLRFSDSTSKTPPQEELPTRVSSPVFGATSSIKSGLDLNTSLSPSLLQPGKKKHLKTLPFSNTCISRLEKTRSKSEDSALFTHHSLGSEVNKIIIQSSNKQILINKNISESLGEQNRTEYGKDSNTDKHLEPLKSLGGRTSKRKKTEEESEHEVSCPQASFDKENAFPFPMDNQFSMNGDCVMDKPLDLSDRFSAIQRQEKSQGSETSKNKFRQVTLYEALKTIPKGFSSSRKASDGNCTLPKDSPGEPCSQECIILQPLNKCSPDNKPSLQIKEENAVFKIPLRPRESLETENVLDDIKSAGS

Series [10] addresses T2, CtIP ΔC608. The series is described as follows: EMSA; undetectable at highest concentration; Anisotropy: 20 mM Tris-Cl pH 8.0, 20 mM NaCl, 1 mM DTT, 5 nM HEX fork; EMSA: 20 mM Tris-Cl pH 8.0, 100 mM NaCl, 1 mM DTT, 0.1 mg/ml BSA, 5% glycerol, 2.5 nM Cy5 fork, room temperature; C-Trap reaction: 10 mM Tris-Cl pH 7.6, 20 mM NaCl, 1 mM DTT, 0.1 mg/ml BSA. The following applies: protein: recombinant; tags: StrepII; chain copies: 4; label: 5'-Cy5 on strand 1; fork: 25 bp duplex, 20 nt 3' and 5' dT arms.

For series [11], the target named is CtIP ΔN790 (human, UniProt Q99708 791-897). The experiment in a line: fluorescence quenching; Results say Cy5-fork; Methods imply HEX (550 nm); Anisotropy: 20 mM Tris-Cl pH 8.0, 20 mM NaCl, 1 mM DTT, 5 nM HEX fork; EMSA: 20 mM Tris-Cl pH 8.0, 100 mM NaCl, 1 mM DTT, 0.1 mg/ml BSA, 5% glycerol, 2.5 nM Cy5 fork, room temperature; C-Trap reaction: 10 mM Tris-Cl pH 7.6, 20 mM NaCl, 1 mM DTT, 0.1 mg/ml BSA. The following applies: protein: recombinant; tags: StrepII; label: 5'-Cy5 on strand 1; fork: 25 bp duplex, 20 nt 3' and 5' dT arms.
CtIP ΔN790, sequence (Q99708 791-897, stated change not applied): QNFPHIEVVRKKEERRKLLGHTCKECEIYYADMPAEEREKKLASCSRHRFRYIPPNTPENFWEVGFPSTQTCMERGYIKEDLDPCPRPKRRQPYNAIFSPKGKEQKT

CtIP ΔN500a, sequence (Q99708 501-897, stated change not applied): as the sequence (Q99708 501-897, stated change not applied) above
CtIP ΔN541a, sequence (Q99708 542-897, stated change not applied): as the sequence (Q99708 542-897, stated change not applied) above

B1: HEX fork (mixed)
DNA 1: GCTTGCTAGGACGGATCGCTCGAGGTTTTTTTTTTTTTTTTTTTT
DNA 2: TTTTTTTTTTTTTTTTTTTTCCTCGAGCGATCCGTCCTAGCAAGC
For B1, the Kd (in general, the equilibrium constant for the complex coming apart) was found to be 520 nM in series [1]; 37 nM in [2]; 66 nM in series [3]; 960 nM in series [4]; 45 nM in series [5]; 210 nM in [6]. The results for the Kd in [7] and in [8] were 33 nM and 115 nM, respectively. In addition, the binding result in series [9] is “no binding”.

B2: Cy5 fork (mixed)
DNA 1: B1 DNA 1
DNA 2: B1 DNA 2
B2: the binding result in series [10] was “no binding”. In addition, in series [11], the Kd amounted to 270 nM.
